The text below walks through data of the supplement of paper PMC9112550, “Optimization of the antimicrobial peptide Bac7 by deep mutational scanning” (BMC Biology, 2022).

The data set concerns Escherichia coli TOP10. In words: shrunken log2 fold change of peptide-encoding DNA abundance (4.5 h post-induction vs induction); higher = less antimicrobial activity (less host growth inhibition). The conditions noted are these: time post-induction: 4.5 h; library: site-saturation at positions 5, 18, 19, 20.
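Also: peptides expressed intracellularly from a pBAD plasmid library in pooled LB shake-flask culture, induced with 0.3% L-arabinose, DNA abundance read by NGS, three biological replicates, DESeq2 with apeglm shrinkage.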

As for RRIRERPPRLPRPRPRPLQKPRP, the “shrunken log2 fold change” value is -0.113.

In the case of RRIRDRPPRLPRPRPRPQHMPRP, the “shrunken log2 fold change” value was -0.11.

Turning to RRIRARPPRLPRPRPRPSKHPRP, the “shrunken log2 fold change” value is -0.11.

For RRIRPRPPRLPRPRPRPNLKPRP, the “shrunken log2 fold change” value is -0.0156.

Take RRIRARPPRLPRPRPRPQRPPRP: the “shrunken log2 fold change” value was 0.517.

As for RRIRIRPPRLPRPRPRPNEPPRP, the “shrunken log2 fold change” value is -0.0172.

With RRIRNRPPRLPRPRPRPLCWPRP, the “shrunken log2 fold change” value is -0.198.

Regarding RRIRVRPPRLPRPRPRPDPMPRP, the “shrunken log2 fold change” value is -0.0769.

Take RRIRIRPPRLPRPRPRPMINPRP: the “shrunken log2 fold change” value is -0.714.

RRIRARPPRLPRPRPRPTYPPRP: the “shrunken log2 fold change” value was -0.0587.

Turning to RRIRMRPPRLPRPRPRPVEDPRP, the “shrunken log2 fold change” value stood at 0.358.

Turning to RRIRKRPPRLPRPRPRPPLFPRP, the “shrunken log2 fold change” value is 0.321.

As to RRIRKRPPRLPRPRPRPCQGPRP, the “shrunken log2 fold change” value was -0.141.

RRIRNRPPRLPRPRPRPSNNPRP: the “shrunken log2 fold change” value is -0.96.

Consider RRIRQRPPRLPRPRPRPGLKPRP, for which the “shrunken log2 fold change” value is 0.0245.

Turning to RRIRRRPPRLPRPRPRPQKLPRP, the “shrunken log2 fold change” value is 0.102.

For RRIRFRPPRLPRPRPRPLDRPRP, the “shrunken log2 fold change” value amounted to 0.163.

Turning to RRIRDRPPRLPRPRPRPACCPRP, the “shrunken log2 fold change” value came out at 0.512.

On to RRIRQRPPRLPRPRPRPAWGPRP, for which the “shrunken log2 fold change” value was 0.34.

Regarding RRIRERPPRLPRPRPRPVMPPRP, the “shrunken log2 fold change” value is -0.259.

For RRIRNRPPRLPRPRPRPYMEPRP, the “shrunken log2 fold change” value is -0.0924.

Turning to RRIRFRPPRLPRPRPRPTWCPRP, the “shrunken log2 fold change” value is -0.0549.

On to RRIRCRPPRLPRPRPRPPWNPRP, for which the “shrunken log2 fold change” value is -0.0539.

With RRIRSRPPRLPRPRPRPFNPPRP, the “shrunken log2 fold change” value is -0.28.

In the case of RRIRTRPPRLPRPRPRPMCGPRP, the “shrunken log2 fold change” value is -0.171.

As for RRIRYRPPRLPRPRPRPRHHPRP, the “shrunken log2 fold change” value was -0.846.

As to RRIRQRPPRLPRPRPRPNRAPRP, the “shrunken log2 fold change” value was determined as 0.025.

For RRIRTRPPRLPRPRPRPIVDPRP, the “shrunken log2 fold change” value was found to be 0.0147.

With RRIRMRPPRLPRPRPRPRQSPRP, the “shrunken log2 fold change” value was found to be 0.982.

As to RRIRGRPPRLPRPRPRPIDKPRP, the “shrunken log2 fold change” value came to 1.2.

For RRIRLRPPRLPRPRPRPTCDPRP, the “shrunken log2 fold change” value was -0.202.

In the case of RRIRNRPPRLPRPRPRPCMRPRP, the “shrunken log2 fold change” value came out at 0.0891.

Turning to RRIRERPPRLPRPRPRPIPSPRP, the “shrunken log2 fold change” value was -0.109.

RRIRARPPRLPRPRPRPDFTPRP: the “shrunken log2 fold change” value was -0.0266.

In the case of RRIRCRPPRLPRPRPRPSWWPRP, the “shrunken log2 fold change” value stood at 0.205.

In the case of RRIRWRPPRLPRPRPRPVYHPRP, the “shrunken log2 fold change” value was 0.161.

Consider RRIRKRPPRLPRPRPRPRGQPRP, for which the “shrunken log2 fold change” value was determined as 0.648.

Regarding RRIRMRPPRLPRPRPRPHYEPRP, the “shrunken log2 fold change” value is -0.0284.

In the case of RRIRERPPRLPRPRPRPAWVPRP, the “shrunken log2 fold change” value worked out at 0.174.

As for RRIRIRPPRLPRPRPRPPNLPRP, the “shrunken log2 fold change” value was -0.188.

Consider RRIRVRPPRLPRPRPRPYYYPRP, for which the “shrunken log2 fold change” value is -0.796.

As for RRIRCRPPRLPRPRPRPSPAPRP, the “shrunken log2 fold change” value stood at 1.35.

On to RRIRLRPPRLPRPRPRPCWMPRP, for which the “shrunken log2 fold change” value was -0.168.

As to RRIRWRPPRLPRPRPRPGGPPRP, the “shrunken log2 fold change” value came to 0.367.

On to RRIRRRPPRLPRPRPRPDMQPRP, for which the “shrunken log2 fold change” value was found to be 0.272.

RRIRARPPRLPRPRPRPHDHPRP: the “shrunken log2 fold change” value was -0.0299.

Take RRIRMRPPRLPRPRPRPPESPRP: the “shrunken log2 fold change” value amounted to 2.5.

For the sequence RRIRKRPPRLPRPRPRPKSMPRP, the “shrunken log2 fold change” value is 0.375.

For RRIRIRPPRLPRPRPRPRGQPRP, the “shrunken log2 fold change” value was determined as 0.413.

Take RRIRFRPPRLPRPRPRPNKDPRP: the “shrunken log2 fold change” value stood at 0.539.

For RRIRTRPPRLPRPRPRPRMPPRP, the “shrunken log2 fold change” value amounted to 0.199.

Consider RRIRCRPPRLPRPRPRPCFLPRP, for which the “shrunken log2 fold change” value was -0.622.

For RRIRTRPPRLPRPRPRPMDEPRP, the “shrunken log2 fold change” value was -0.219.

Regarding RRIRWRPPRLPRPRPRPNAHPRP, the “shrunken log2 fold change” value amounted to 0.0415.

Regarding RRIRFRPPRLPRPRPRPVSIPRP, the “shrunken log2 fold change” value came to 0.0109.

RRIRYRPPRLPRPRPRPDIPPRP: the “shrunken log2 fold change” value is -0.119.

RRIRSRPPRLPRPRPRPGSKPRP: the “shrunken log2 fold change” value was -0.0053.

Consider RRIRWRPPRLPRPRPRPLVEPRP, for which the “shrunken log2 fold change” value amounted to 0.2.

As to RRIRCRPPRLPRPRPRPISFPRP, the “shrunken log2 fold change” value was -0.113.

As to RRIRKRPPRLPRPRPRPQMPPRP, the “shrunken log2 fold change” value was found to be 0.0482.

In the case of RRIRFRPPRLPRPRPRPQQEPRP, the “shrunken log2 fold change” value is -0.0424.

For the sequence RRIRQRPPRLPRPRPRPGRPPRP, the “shrunken log2 fold change” value stood at 0.121.

RRIRDRPPRLPRPRPRPFCYPRP: the “shrunken log2 fold change” value was 0.0322.

On to RRIRWRPPRLPRPRPRPWQRPRP, for which the “shrunken log2 fold change” value worked out at 0.551.

Take RRIRSRPPRLPRPRPRPARWPRP: the “shrunken log2 fold change” value turned out to be 0.224.

Turning to RRIRQRPPRLPRPRPRPQLSPRP, the “shrunken log2 fold change” value is -0.0914.

Turning to RRIRPRPPRLPRPRPRPNMGPRP, the “shrunken log2 fold change” value was -0.202.

As to RRIRVRPPRLPRPRPRPVFYPRP, the “shrunken log2 fold change” value was -0.178.

For RRIRRRPPRLPRPRPRPFRIPRP, the “shrunken log2 fold change” value worked out at 0.101.

As for RRIRKRPPRLPRPRPRPSIEPRP, the “shrunken log2 fold change” value turned out to be 0.0829.

For the sequence RRIRPRPPRLPRPRPRPCDMPRP, the “shrunken log2 fold change” value was -0.217.

As to RRIRCRPPRLPRPRPRPKYQPRP, the “shrunken log2 fold change” value is -0.0383.

As for RRIRERPPRLPRPRPRPKKWPRP, the “shrunken log2 fold change” value turned out to be 2.71.

For the sequence RRIRLRPPRLPRPRPRPRWFPRP, the “shrunken log2 fold change” value is 0.602.

As to RRIRIRPPRLPRPRPRPKSDPRP, the “shrunken log2 fold change” value is -0.222.

In the case of RRIRKRPPRLPRPRPRPGEMPRP, the “shrunken log2 fold change” value was determined as 1.62.

Take RRIRSRPPRLPRPRPRPQMEPRP: the “shrunken log2 fold change” value came out at 0.0832.

For RRIRGRPPRLPRPRPRPFQPPRP, the “shrunken log2 fold change” value came out at 0.0927.

On to RRIRTRPPRLPRPRPRPNPLPRP, for which the “shrunken log2 fold change” value was -0.216.

RRIRHRPPRLPRPRPRPQMRPRP: the “shrunken log2 fold change” value came out at 0.209.

Regarding RRIRPRPPRLPRPRPRPLSCPRP, the “shrunken log2 fold change” value is -0.0219.

Turning to RRIRWRPPRLPRPRPRPMRPPRP, the “shrunken log2 fold change” value was determined as 1.15.

With RRIRMRPPRLPRPRPRPVISPRP, the “shrunken log2 fold change” value is -0.28.

RRIRMRPPRLPRPRPRPCCKPRP: the “shrunken log2 fold change” value was -0.233.

As to RRIRIRPPRLPRPRPRPIVQPRP, the “shrunken log2 fold change” value was -0.158.

Consider RRIRDRPPRLPRPRPRPCYDPRP, for which the “shrunken log2 fold change” value was -0.129.

Take RRIRHRPPRLPRPRPRPMGMPRP: the “shrunken log2 fold change” value was -0.254.

As to RRIRFRPPRLPRPRPRPEGPPRP, the “shrunken log2 fold change” value is 0.0494.

In the case of RRIRLRPPRLPRPRPRPVTPPRP, the “shrunken log2 fold change” value was -0.0834.

RRIRHRPPRLPRPRPRPLLLPRP: the “shrunken log2 fold change” value was -0.208.

Regarding RRIRIRPPRLPRPRPRPWTQPRP, the “shrunken log2 fold change” value came out at 0.0826.

Regarding RRIRRRPPRLPRPRPRPHEWPRP, the “shrunken log2 fold change” value is -0.00636.

Take RRIRMRPPRLPRPRPRPDVVPRP: the “shrunken log2 fold change” value was -0.0061.

RRIRDRPPRLPRPRPRPPDTPRP: the “shrunken log2 fold change” value is 0.662.

Consider RRIRIRPPRLPRPRPRPDSRPRP, for which the “shrunken log2 fold change” value was -0.0316.

For the sequence RRIRERPPRLPRPRPRPAMRPRP, the “shrunken log2 fold change” value was found to be 0.59.

RRIRARPPRLPRPRPRPNPRPRP: the “shrunken log2 fold change” value worked out at 0.722.

RRIRPRPPRLPRPRPRPKNMPRP: the “shrunken log2 fold change” value was -0.436.

With RRIRTRPPRLPRPRPRPYDTPRP, the “shrunken log2 fold change” value was -0.661.

For RRIRKRPPRLPRPRPRPVPNPRP, the “shrunken log2 fold change” value is -0.00404.

As to RRIRLRPPRLPRPRPRPGKLPRP, the “shrunken log2 fold change” value is -0.00186.

For RRIRSRPPRLPRPRPRPQLLPRP, the “shrunken log2 fold change” value is -0.182.

With RRIRQRPPRLPRPRPRPQSWPRP, the “shrunken log2 fold change” value was determined as 0.0219.

In the case of RRIRGRPPRLPRPRPRPDTMPRP, the “shrunken log2 fold change” value was found to be 0.00209.

In the case of RRIRARPPRLPRPRPRPYPDPRP, the “shrunken log2 fold change” value is -0.0126.

Regarding RRIRHRPPRLPRPRPRPMLCPRP, the “shrunken log2 fold change” value is -0.0124.

Consider RRIRERPPRLPRPRPRPMCFPRP, for which the “shrunken log2 fold change” value is -0.176.

On to RRIRDRPPRLPRPRPRPRQEPRP, for which the “shrunken log2 fold change” value was found to be 0.0935.

RRIRMRPPRLPRPRPRPPHRPRP: the “shrunken log2 fold change” value came to 0.567.

In the case of RRIRRRPPRLPRPRPRPSCVPRP, the “shrunken log2 fold change” value came to 0.259.

For RRIRSRPPRLPRPRPRPKNPPRP, the “shrunken log2 fold change” value is -0.11.

RRIRCRPPRLPRPRPRPGITPRP: the “shrunken log2 fold change” value was -0.232.

For RRIRARPPRLPRPRPRPMTIPRP, the “shrunken log2 fold change” value is -0.113.

Regarding RRIRYRPPRLPRPRPRPDFVPRP, the “shrunken log2 fold change” value is -0.205.

Take RRIRIRPPRLPRPRPRPHTNPRP: the “shrunken log2 fold change” value was -0.906.

In the case of RRIRTRPPRLPRPRPRPHFKPRP, the “shrunken log2 fold change” value is -0.307.

For RRIRERPPRLPRPRPRPRIGPRP, the “shrunken log2 fold change” value is -0.0649.

In the case of RRIRPRPPRLPRPRPRPNVLPRP, the “shrunken log2 fold change” value is -0.312.

On to RRIRFRPPRLPRPRPRPIQVPRP, for which the “shrunken log2 fold change” value was -0.228.

For the sequence RRIRYRPPRLPRPRPRPWAAPRP, the “shrunken log2 fold change” value was -0.0914.

In the case of RRIRVRPPRLPRPRPRPEEVPRP, the “shrunken log2 fold change” value turned out to be 0.0207.

Turning to RRIRYRPPRLPRPRPRPHSPPRP, the “shrunken log2 fold change” value is -0.0755.

Take RRIRFRPPRLPRPRPRPPQSPRP: the “shrunken log2 fold change” value was 0.334.

As for RRIRHRPPRLPRPRPRPEYDPRP, the “shrunken log2 fold change” value was -0.0789.

RRIRHRPPRLPRPRPRPHHHPRP: the “shrunken log2 fold change” value was -1.
